Experiment [1] has as its target BIR1-CFP (Arabidopsis). The experiment can be described thus: cross number and brightness (Cross N&B) fluorescence fluctuation analysis; leaf disks of N. benthamiana transiently expressing AtRGS1-YFP with BIR1-CFP or BAK1-CFP; time series of 100 confocal images; SimFCS analysis.
Experiment [2] has as its target T1, BAK1-CFP (Arabidopsis), Q94F62.
T1 chain: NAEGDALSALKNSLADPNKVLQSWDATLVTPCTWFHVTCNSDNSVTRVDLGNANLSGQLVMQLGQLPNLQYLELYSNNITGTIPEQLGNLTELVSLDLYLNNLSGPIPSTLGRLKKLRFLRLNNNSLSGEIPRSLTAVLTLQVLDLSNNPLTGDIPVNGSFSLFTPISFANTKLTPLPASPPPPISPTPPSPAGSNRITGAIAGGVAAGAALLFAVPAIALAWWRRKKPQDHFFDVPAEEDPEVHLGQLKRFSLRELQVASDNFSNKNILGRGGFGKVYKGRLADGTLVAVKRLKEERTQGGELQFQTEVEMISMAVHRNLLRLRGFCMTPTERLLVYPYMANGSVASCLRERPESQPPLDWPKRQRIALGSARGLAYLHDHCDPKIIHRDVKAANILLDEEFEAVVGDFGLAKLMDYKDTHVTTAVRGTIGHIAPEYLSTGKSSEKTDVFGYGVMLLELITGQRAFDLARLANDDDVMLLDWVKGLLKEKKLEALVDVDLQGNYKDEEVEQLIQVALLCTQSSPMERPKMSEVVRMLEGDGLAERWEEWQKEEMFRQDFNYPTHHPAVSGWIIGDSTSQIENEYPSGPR
The experiment is described as above. The following applies: remark: other sources report otherwise.

B1: AtRGS1-YFP (natural protein)
chain: MASGCALHGGCPSDYVAVAISVICFFVLLSRSVLPCLIHKAPRTNSSSFWIPVIQVISSFNLLFSIMMSVNLLRFRTKHWWRYCYLWAVWIEGPLGFGLLMSCRITQAFQLYFIFVKKRLPPVKSYIFLPLVLLPWIFGAAIIHATKPLNDKCHMGLQWTFPVAGLHALYVLALIAFTRAVRHVEFRFDELRDLWKGILVSATSIVIWVTAFVLNEIHEEISWLQVASRFVLLVTGGILVVVFFSISSNQPLLSQISLKKRQNFEFQRMGQALGIPDSGLLFRKEEFRPVDPNEPLDKLLLNKRFRHSFMEFADSCYAGETLHFFEEVYEHGKIPEDDSIRRIYMARHIMEKFIVAGAEMELNLSHKTRQEILTTQDLTHTDLFKNALNEVMQLIKMNLVRDYWSSIYFIKFKEEESCHEAMHKEGYSFSSPRLSSVQGSDDPFYQEHMSKSSRCSSPG
A word on the stoichiometry N: it is the number of molecules, sites or subunits per partner or assembly. With B1, the stoichiometry N in experiment [1] is 1.

B2: AtRGS1-YFP, Q8H1F2 1-459 (natural protein)
chain: B1 chain
In the case of B2, in experiment [2], the stoichiometry N turned out to be 1.

Values taken from article PMC5302818.
